Where no end group is shown, it is not given here.
T1: BSA-conjugated mouse CADM1 peptide (mouse, also: conjugated to BSA via added C-terminal Cys)
T1 construct: also called mouse peptide
T1 peptide: DSRAGEEGTIGAVDHC(BSA)

T2: CADM1 peptide expressed on SBC-5 small cell lung cancer cells (CADM1-SBC-5); peptide - transmembrane domain - … (human)
T2 construct: also called CADM1 펩타이드를 발현하는 SBC-5 세포
T2 sequence (Q9BY67 whole entry, looked up): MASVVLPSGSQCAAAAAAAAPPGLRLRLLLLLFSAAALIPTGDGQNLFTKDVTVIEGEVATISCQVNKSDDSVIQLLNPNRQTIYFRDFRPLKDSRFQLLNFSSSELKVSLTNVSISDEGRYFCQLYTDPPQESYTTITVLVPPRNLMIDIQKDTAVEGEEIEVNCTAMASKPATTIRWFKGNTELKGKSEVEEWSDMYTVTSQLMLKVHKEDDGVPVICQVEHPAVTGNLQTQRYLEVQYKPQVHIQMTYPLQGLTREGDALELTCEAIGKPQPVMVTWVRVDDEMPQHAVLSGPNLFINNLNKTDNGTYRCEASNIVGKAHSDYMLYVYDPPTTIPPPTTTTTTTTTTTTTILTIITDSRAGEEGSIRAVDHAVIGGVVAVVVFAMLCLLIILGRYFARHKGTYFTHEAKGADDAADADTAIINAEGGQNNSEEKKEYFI

T3: BSA-conjugated human CADM1 peptide (human, also: conjugated to BSA via added C-terminal Cys)
T3 construct: also called human peptide; rhCADM1 peptide
T3 peptide: DSRAGEEGSIRAVDHC(BSA)


Columns and labels:
[1] = target: T1, BSA-conjugated mouse CADM1 peptide; assay: ELISA, scFv titrated on coated BSA-conjugated mouse CADM1 peptide, anti-HA-HRP, OD450
[2] = target: T2, CADM1 peptide expressed on SBC-5 small …; assay: flow cytometry, 1 ug scFv on 5x10^5 SBC-5 cells expressing the CADM1 peptide, PE anti-HA
[3] = target: T4, comparison structure: the same structure without the CADM1 peptide (Myc tag, hinge, transmembrane domain, …); assay: flow cytometry, 1 ug scFv on 5x10^5 cells with the structure without the CADM1 peptide, PE anti-HA
T4 construct: also called 비교군 구조; CADM1 펩타이드를 포함하지 않는 세포

[4] = target: T3, BSA-conjugated human CADM1 peptide; assay: ELISA, scFv titrated on coated BSA-conjugated human CADM1 peptide, anti-HA-HRP, OD450

Row | Bmax [1] | Kd [1] | 결합력 (%) [2] | 결합력 (%) [3] | Bmax [4] | Kd [4] | Binder
1 | 4 | 2.72 nM | 38.4% | 1.2% | 4.01 | 0.649 nM | RB11 (scFv, V domains shown, Tested as purified scFv with His tag and HA tag; chicken immune library) VH: AVTLDESGGGLQTPGGGLSLVCKGSGFTFSSYAMNWVRQAPGKGLEFVAQITSSGRYTYYGTAVKGRATISRDNGQSTVRLQLNNLRAEDSGTYYCAKDAAAGYYDGATAGDIDAWGHGTEVIVSS VL: LTQPSSVSANPGGTVKITCSGGSGSYGWFQQKAPGSAPVTLIYANTNRPSDIPSRFSGSKSGSTATLTITGVQVEDEAVYYCGSTDSSYVSIFGAGTTLTVL
2 | 2.4 | 124 nM | 10% | 0.7% | 4.16 | 5.58 nM | RH6 (scFv, V domains shown, Tested as purified scFv with His tag and HA tag; chicken immune library) VH: AVTLDESGGGLQTPGGGLSLVCKGSGFTFSSYAMNWVRQAPGKGLEFVAQITSSGRYTYYGTAVKGRATISRDNGQSTVRLQLNNLRAEDSGTYYCAKDAAAGYYDGATAGDIDAWGHGTEVIVSS VL: VTQPSSVSANPGESVKITCSGGSYSYGWYQQKSPGSAPVTVIYSNNQRPSNIPSRFSGSTSGSTSTLTITGVQADDEAVYFCGTFDSSTNAAFGAGTTLTVL
